# Reference: paper PMC6050537 (2018)
# Non-standard residues stand in square brackets, D forms with d. 1Nal = N[C@@H](Cc1cccc2ccccc12)C(=O)O
# T1: Full length IDOL (1–445) (UniProt Q8WY64 1-445, NT-647-NHS dye (only the labelled copy in the MST assays))
# T1 chain: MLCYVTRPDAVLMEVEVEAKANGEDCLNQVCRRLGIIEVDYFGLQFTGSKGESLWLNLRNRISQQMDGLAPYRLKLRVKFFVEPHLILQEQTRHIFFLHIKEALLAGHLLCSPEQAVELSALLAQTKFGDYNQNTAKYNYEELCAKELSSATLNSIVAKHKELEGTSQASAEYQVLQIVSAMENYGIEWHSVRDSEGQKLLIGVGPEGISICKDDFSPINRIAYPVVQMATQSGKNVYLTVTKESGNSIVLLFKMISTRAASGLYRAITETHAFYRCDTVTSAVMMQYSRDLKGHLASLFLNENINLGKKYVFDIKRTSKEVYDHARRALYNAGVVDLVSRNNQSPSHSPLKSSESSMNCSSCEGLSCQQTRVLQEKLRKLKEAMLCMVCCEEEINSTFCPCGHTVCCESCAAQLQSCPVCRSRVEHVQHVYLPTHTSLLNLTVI
# Target: T1, Full length IDOL (1–445)
# Test: MST
row,Kd,Binder
1,6.3 µM,cyclo(CF[1Nal]LYT) [RINGPep1 analogue containing 3-(1-naphthyl)-L-alanine]
2,6.6 µM,"CFXLYT (HELM PEPTIDE1{C.F.[Cha].L.Y.T}$PEPTIDE1,PEPTIDE1,1:R1-6:R2$$$V2.0; SMILES CC(C)C[C@@H]1NC(=O)[C@H](CC2CCCCC2)NC(=O)[C@H](Cc2ccccc2)NC(=O)[C@H](CS)NC(=O)[C@H]([C@@H](C)O)NC(=O)[C@H](Cc2ccc(O)cc2)NC1=O) [RINGPep2 (cyclo-CF-Cha-LYT)]"
